Key:
[1] = molecular target: T1, TNFRSF25 on lymphocytes in human PBMCs (human, UniProt Q93038 25-417); experiment: flow cytometry MFI on NK cells of human PBMCs, anti-CD3/CD28 stimulation 24 h, APC anti-human Fc
T1 construct: whole, on cells; also called TNFRSF25 on CD4+ and CD8+ T cells and NK cells
T1 sequence (looked up): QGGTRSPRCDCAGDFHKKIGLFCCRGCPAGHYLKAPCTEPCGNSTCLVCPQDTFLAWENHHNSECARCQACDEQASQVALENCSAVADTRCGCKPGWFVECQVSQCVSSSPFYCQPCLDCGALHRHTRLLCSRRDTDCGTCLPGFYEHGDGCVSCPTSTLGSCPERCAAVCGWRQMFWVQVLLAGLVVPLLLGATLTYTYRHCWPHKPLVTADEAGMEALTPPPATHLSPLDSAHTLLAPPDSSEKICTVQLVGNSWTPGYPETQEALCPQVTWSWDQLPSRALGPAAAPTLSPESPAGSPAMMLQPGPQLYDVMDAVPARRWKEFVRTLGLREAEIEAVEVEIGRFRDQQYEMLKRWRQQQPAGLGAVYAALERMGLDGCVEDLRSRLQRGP
Protocol: (§1) Human PBMCs were stimulated with either IL12+IL18 or anti-CD3/CD28 for 24 hours to assess binding of anti-TNFRSF25 to lymphocyte subsets.
(§2) Figure 9: FIG. 9. […] Figure 10: FIG. 10.

[2] = molecular target: T1, TNFRSF25 on lymphocytes in human PBMCs; experiment: flow cytometry MFI on CD4+ T cells of human PBMCs, no stimulation, APC anti-human Fc
[3] = molecular target: T2, GITR; experiment: flow cytometry on engineered mammalian cells overexpressing GITR, APC anti-human Fc
T2 construct: member of group m24; also called GITR overexpressed in engineered mammalian cells
T2 chain: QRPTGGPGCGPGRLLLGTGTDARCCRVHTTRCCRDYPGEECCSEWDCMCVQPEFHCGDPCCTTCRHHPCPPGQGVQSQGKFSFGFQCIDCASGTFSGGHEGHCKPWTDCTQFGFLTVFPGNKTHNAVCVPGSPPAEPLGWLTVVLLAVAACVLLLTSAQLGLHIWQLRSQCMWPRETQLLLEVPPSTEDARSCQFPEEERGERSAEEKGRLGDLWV

[4] = molecular target: T1, TNFRSF25 on lymphocytes in human PBMCs; experiment: flow cytometry MFI on CD4+ T cells of human PBMCs, anti-CD3/CD28 stimulation 24 h, APC anti-human Fc
Protocol: as §1, §2

[5] = molecular target: T3, biotinylated recombinant human FcRn-His tagged protein (Acro #FCM-H82W7) (human, UniProt P55899 24-297; P61769 21-119, biotinylated); experiment: BLI/Octet; biotinylated human FcRn-His on streptavidin biosensor; pH 7.4
T3 construct: also called hFcRn; neonatal Fc receptor
Protocol: Figure 5D: FIG. 5D. FcRn binding kinetics by anti-TNFRSF25 antibodies. BLI assay was performed using the Octet Red 96e instrument. Streptavidin biosensors were loaded with biotinylated recombinant human(h) FcRn-His tagged protein (Acro #FCM-H82W7) as the ligand. During the association phase, biosensors were incubated with anti-DR3 candidate antibodies at various concentrations for 600 seconds, followed by a 600-second dissociation phase.
To detect binding of certain whole antibodies to the neonatal Fc receptor (FcRn) at neutral and acidic pH conditions, streptavidin biosensors were loaded with biotinylated recombinant human FcRn-His tagged protein (Acro #FCM-H82W7) as the ligand. During the association phase, biosensors were incubated with anti-TNFRSF25 antibodies at various concentrations for 600 seconds, followed by a 600 second dissociation phase.

[6] = molecular target: T1, TNFRSF25 on lymphocytes in human PBMCs; experiment: flow cytometry MFI on NK cells of human PBMCs, IL12+IL18 stimulation 24 h, APC anti-human Fc
Protocol: as §1, §2

[7] = molecular target: T1, TNFRSF25 on lymphocytes in human PBMCs; experiment: flow cytometry MFI on CD8+ T cells of human PBMCs (panel 1003_CD8+T), anti-CD3/CD28 stimulation 24 h, APC anti-human Fc
Protocol: as §1, §2

[8] = molecular target: T1, TNFRSF25 on lymphocytes in human PBMCs; experiment: flow cytometry MFI on CD4+ T cells of human PBMCs, IL12+IL18 stimulation 24 h, APC anti-human Fc
Protocol: as §1, §2

T3 sequence (P55899 24-297 limits assumed, chain 1 of 2): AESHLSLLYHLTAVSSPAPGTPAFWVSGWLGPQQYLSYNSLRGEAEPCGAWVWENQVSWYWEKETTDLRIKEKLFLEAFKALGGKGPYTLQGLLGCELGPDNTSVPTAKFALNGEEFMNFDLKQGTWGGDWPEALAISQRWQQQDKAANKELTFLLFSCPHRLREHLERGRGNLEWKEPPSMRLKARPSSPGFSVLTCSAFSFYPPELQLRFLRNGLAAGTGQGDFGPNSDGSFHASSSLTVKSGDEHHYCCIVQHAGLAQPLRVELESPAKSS
T3 sequence (P61769 21-119 limits assumed, chain 2 of 2): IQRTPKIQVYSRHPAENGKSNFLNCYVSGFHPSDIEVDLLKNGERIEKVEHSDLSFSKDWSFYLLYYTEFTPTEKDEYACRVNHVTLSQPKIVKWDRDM

B1: SL-061 (antibody, human IgG1, kappa)
heavy: QVQLQQSGPGLVKPSQTLSLTCAISGDSVSGYSAAWNWIRQSPSRGLEWLGRTYYRSKWYNDYAVSVKSRITINPDTSKNQFSLQLNSVTPEDTAVYYCARDYYGSESYYNRGYYYYGMDVWGQGTTVTVSSASTKGPSVFPLAPSSKSTSGGTAALGCLVKDYFPEPVTVSWNSGALTSGVHTFPAVLQSSGLYSLSSVVTVPSSSLGTQTYICNVNHKPSNTKVDKKVEPKSCDKTHTCPPCPAPEAAGAPSVFLFPPKPKDTLMISRTPEVTCVVVDVSHEDPEVKFNWYVDGVEVHNAKTKPREEQYNSTYRVVSVLTVLHQDWLNGKEYKCKVSNKALPAPIEKTISKAKGQPREPQVYTLPPSREEMTKNQVSLTCLVKGFYPSDIAVEWESNGQPENNYKTTPPVLDSDGSFFLYSKLTVDKSRWQQGNVFSCSVMHEALHNHYTQKSLSLSPGK
light: AIQLTQSPSSLSASVGDRVTITCRASPGISSALAWYQQKPGKAPKLLMYDESSQESGVPSRFSGSGSGTDFTLTISSLQPEDFATYYCQQFNDYPLTFGGGTKVEIKRTVAAPSVFIFPPSDEQLKSGTASVVCLLNNFYPREAKVQWKVDNALQSGNSQESVTEQDSKDSTYSLSSTLTLSKADYEKHKVYACEVTHQGLSSPVTKSFNRGEC
notes: Same variable regions as SL-033; IgG1 with L234A/L235A+G237A; also called clone 061; SL-061 (L234A/L235A+G237A)
EC50 [1]: 0.054 nM
EC50 [2]: 0.035 nM
binding result [3]: no binding (tested: about 20 nM)
EC50 [4]: 0.059 nM
Kd [5]: 7.41 nM
koff [5]: 0.00327 s⁻¹
kon [5]: 441000 M⁻¹ s⁻¹
EC50 [6]: 0.065 nM
EC50 [7]: 0.059 nM
EC50 [8]: 0.035 nM
